These results are taken from publication PMC6923591.

Assay [1] concerns the target Ptpn6 Y208N C-SH2 domain (recombinant C-terminal SH2 domain of Ptpn6/SHP-1 with Y208N). In words: ITC.
Assay [2] deals with Ptpn6 wt C-SH2 domain (recombinant C-terminal SH2 domain of Ptpn6/SHP-1). Description: ITC. Background: Isothermal titration calorimetry measures the heat released or taken up as one component is titrated into another.

Usually Kd stands for a measure of binding affinity in units of concentration. Regarding FcγR2b phosphopeptide, the figures for the Kd in assay [1] and in assay [2] were 10.4 µM and 20.1 µM, respectively.
